The values below come from publication PMC3315804 (Molecular Biology of the Cell, 2012).

The target of assay [1] is Y14D-Cav-1-YFP (phosphomimicking mutant) (human) (UniProt Q03135). Briefly: co-IP.
In assay [2] the target is T1, Y14D-Cav-1-YFP (phosphomimicking mutant) (human, UniProt Q03135 1-178, Y14D).
T1 sequence: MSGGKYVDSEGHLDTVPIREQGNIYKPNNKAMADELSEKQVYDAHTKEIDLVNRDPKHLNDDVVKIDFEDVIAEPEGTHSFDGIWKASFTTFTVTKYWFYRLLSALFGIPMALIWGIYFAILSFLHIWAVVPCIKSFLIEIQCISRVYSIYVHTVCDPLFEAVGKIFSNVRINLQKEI
Put plainly: co-IP.

“eNOS-S1177D-CFP (phosphomimicking mutant) (from UniProt P29474-1 1-1203) (enzyme)” returned a fold binding against WT-eNOS with WT-Cav-1 in assay [1] of 4.2 fold.

B1: WT-eNOS-CFP, expressed in HEK cells (enzyme)
chain: MGNLKSVAQEPGPPCGLGLGLGLGLCGKQGPATPAPEPSRAPASLLPPAPEHSPPSSPLTQPPEGPKFPRVKNWEVGSITYDTLSAQAQQDGPCTPRRCLGSLVFPRKLQGRPSPGPPAPEQLLSQARDFINQYYSSIKRSGSQAHEQRLQEVEAEVAATGTYQLRESELVFGAKQAWRNAPRCVGRIQWGKLQVFDARDCRSAQEMFTYICNHIKYATNRGNLRSAITVFPQRCPGRGDFRIWNSQLVRYAGYRQQDGSVRGDPANVEITELCIQHGWTPGNGRFDVLPLLLQAPDDPPELFLLPPELVLEVPLEHPTLEWFAALGLRWYALPAVSNMLLEIGGLEFPAAPFSGWYMSTEIGTRNLCDPHRYNILEDVAVCMDLDTRTTSSLWKDKAAVEINVAVLHSYQLAKVTIVDHHAATASFMKHLENEQKARGGCPADWAWIVPPISGSLTPVFHQEMVNYFLSPAFRYQPDPWKGSAAKGTGITRKKTFKEVANAVKISASLMGTVMAKRVKATILYGSETGRAQSYAQQLGRLFRKAFDPRVLCMDEYDVVSLEHETLVLVVTSTFGNGDPPENGESFAAALMEMSGPYNSSPRPEQHKSYKIRFNSISCSDPLVSSWRRKRKESSNTDSAGALGTLRFCVFGLGSRAYPHFCAFARAVDTRLEELGGERLLQLGQGDELCGQEEAFRGWAQAAFQAACETFCVGEDAKAAARDIFSPKRSWKRQRYRLSAQAEGLQLLPGLIHVHRRKMFQATIRSVENLQSSKSTRATILVRLDTGGQEGLQYQPGDHIGVCPPNRPGLVEALLSRVEDPPAPTEPVAVEQLEKGSPGGPPPGWVRDPRLPPCTLRQALTFFLDITSPPSPQLLRLLSTLAEEPREQQELEALSQDPRRYEEWKWFRCPTLLEVLEQFPSVALPAPLLLTQLPLLQPRYYSVSSAPSTHPGEIHLTVAVLAYRTQDGLGPLHYGVCSTWLSQLKPGDPVPCFIRGAPSFRLPPDPSLPCILVGPGTGIAPFRGFWQERLHDIESKGLQPTPMTLVFGCRCSQLDHLYRDEVQNAQQRGVFGRVLTAFSREPDNPKTYVQDILRTELAAEVHRVLCLERGHMFVCGDVTMATNVLQTVQRILATEGDMELDEAGDVIGVLRDQQRYHEDIFGLTLRTQEVTSRIRTQSFSLQERQLRGAVPWAFDPPGSDTNSP
Turning to B1, in assay [2], the “fold binding against WT-eNOS with WT-Cav-1” value is 4.2 fold.
